Holding throughout (assay): SPR (BIACORE), antibody captured, FcγR as analyte, 25°C
(SPR reads the build-up and loss of mass on a sensor chip optically.)

Assay [1] addresses T1, cynomolgus monkey FcγRIIIaS extracellular domain, His-tagged (cynomolgus monkey, UniProt A3RFZ7 21-206 (rhesus entry)).
T1 construct: also called cyno FcgRIIIaS; cynoFcγRIIIaS; not shown: His-tag added to the C-terminus
How it is done: (§1) The kinetic analysis of interactions between these antibodies and FcγR was carried out using BIACORE® T200 or BIACORE® 4000 (GE Healthcare). HBS-EP+ (GE Healthcare) was used as the running buffer, and the measurement temperature was set to 25° C. A chip produced by immobilizing Protein A. Protein A/G or mouse anti-human IgG kappa light chain (BD Biosciences) onto a Series S Sensor Chip CM4 or CM5 (GE Healthcare) by the amine-coupling method was used. […] After the measurement, the antibody captured on the chip was washed off by allowing reaction with 10 mM glycine-HCl, pH1.5 and 25 mM NaOH so that the chip was regenerated and used repeatedly. The sensorgrams obtained as measurement results were analyzed by the 1:1 Langmuir binding model using the BIACORE® Evaluation Software to calculate the binding rate constant ka (L/mol/s) and dissociation rate constant kd (l/s), and the dissociation constant KD (mol/L) was calculated from these values. […] Regarding such interactions, KD values were calculated using the following 1:1 binding model described in BIACORE® T100 Software Handbook BR1006-48 Edition AE.
(§2) The behavior of interacting molecules according to the 1:1 binding model on BIACORE® can be described by Equation 1: Req=C·R max/(KD+C)+RI, wherein, Req is a plot of steady-state binding levels to analyte concentration. C is concentration, RI is bulk refractive index contribution in the sample, and Rmax is analyte binding capacity of the surface. When this equation is rearranged, KD can be expressed as Equation 2: KD=C·Rmax/(Req−RI)−C. KD can be calculated by substituting the values of Rmax, RI, and C into Equation 1 or Equation 2. From the current measurement conditions, RI=0, C=2 μmol/L can be used.

Assay [2] has as its target T2, human FcγRIIIaV extracellular domain, His-tagged (human, UniProt P08637 17-208).
T2 construct: also called human FcgRIIIaV; not shown: His-tag added to the C-terminus
Here is the method:
as §1, §2

In assay [3] the target is T3, cynomolgus monkey FcγRIIa3 extracellular domain, His-tagged (cynomolgus monkey).
T3 construct: also called cyno FcgRIIa3; cynoFcγRIIa3; not shown: His-tag added to the C-terminus
T3 chain: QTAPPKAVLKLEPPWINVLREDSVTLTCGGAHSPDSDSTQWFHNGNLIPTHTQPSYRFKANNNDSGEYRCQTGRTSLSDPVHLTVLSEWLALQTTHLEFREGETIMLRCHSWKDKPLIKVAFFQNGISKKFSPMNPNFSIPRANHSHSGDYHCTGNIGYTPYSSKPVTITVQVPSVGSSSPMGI
Here is the method: as §1, §2

Assay [4] addresses T4, cynomolgus monkey FcγRIIb extracellular domain, His-tagged (cynomolgus monkey).
T4 construct: also called cyno FcgRIIb; cynoFcγRIIb; not shown: His-tag added to the C-terminus
T4 chain: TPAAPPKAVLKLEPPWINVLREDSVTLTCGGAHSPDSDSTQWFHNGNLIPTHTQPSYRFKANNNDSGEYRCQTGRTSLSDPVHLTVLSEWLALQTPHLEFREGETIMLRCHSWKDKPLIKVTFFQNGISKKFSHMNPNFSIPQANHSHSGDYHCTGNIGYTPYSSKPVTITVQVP
Here is the method:
as §1, §2

The target of assay [5] is T5, human FcγRIIb extracellular domain, His-tagged (human, UniProt P31994 43-217).
T5 construct: also called human FcgRIIb; not shown: His-tag added to the C-terminus
T5 sequence: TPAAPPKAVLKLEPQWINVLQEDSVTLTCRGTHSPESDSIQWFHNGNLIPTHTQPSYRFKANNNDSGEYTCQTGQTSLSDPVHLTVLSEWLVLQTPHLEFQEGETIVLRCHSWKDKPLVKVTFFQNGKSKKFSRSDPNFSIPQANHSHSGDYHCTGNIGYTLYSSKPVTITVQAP
Here is the method: as §1, §2

The target in assay [6] is T6, cynomolgus monkey FcγRIIa2 extracellular domain, His-tagged (cynomolgus monkey).
T6 construct: also called cyno FcgRIIa2; cynoFcγRIIa2; not shown: His-tag added to the C-terminus
T6 chain: T3 chain with I127K, K130N, P133H, R142Q
Here is the method: as §1, §2

In assay [7] the target is T7, cynomolgus monkey FcγRIIa1 extracellular domain, His-tagged (cynomolgus monkey).
T7 construct: also called cyno FcgRIIa1; cynoFcγRIIa1; not shown: His-tag added to the C-terminus
T7 chain: T3 chain with T95P, A121T, S128A, P133H, N135D
Here is the method: as §1, §2

Changes are numbered by the printed parent chain.

T2 sequence (P08637 17-208 F176V): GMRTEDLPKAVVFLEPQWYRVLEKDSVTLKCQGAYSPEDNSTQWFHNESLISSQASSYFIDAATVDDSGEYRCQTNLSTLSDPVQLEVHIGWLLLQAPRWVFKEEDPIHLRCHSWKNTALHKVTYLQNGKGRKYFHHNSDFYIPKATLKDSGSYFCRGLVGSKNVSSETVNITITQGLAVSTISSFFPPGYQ

B1: M103205H795-MY264/M103202L889-SK1 (antibody, human IgG1, kappa)
heavy: QVTLKESGPVLVKPTETLTLTCTVSGIDLSHDDISWVRQAPGKGLEWVGIISYAGSTYYASWAKGRLTISKDTSKNQVVLTMTNMDPVDTATYYCARGVPAYSHGGDLWGQGTLVTVSSASTKGPSVFPLAPSSKSTSGGTAALGCLVKDYFPEPVTVSWNSGALTSGVHTFPAVLQSSGLYSLSSVVTVPSSSLGTQTYICNVNHKPSNTKVDKKVEPKSCDKTHTCPPCPAPELLLGPSVFLFPPKPKDTLMISRTPEVTCVVVDVSDEDPEVKFNWYVDGVEVHNAKTKPREEQYNSTYRVVSVLTVLHQDWLNGKEYKCKVSNKALPKPIEKTISKAKGQPREPQVYTLPPSREEMTKNQVSLTCLVKGFYPSDIAVEWESNGQPENNYKTTPPVLDSDGSFFLYSKLTVDKSRWQQGNVFSCSVMHEALHNHYTQKSLSLSP
light: DIVMTQSPATLSLSPGERATLSCTSSQSVYHANWLSWFQQKPGQPPKLLIYWASTLAYGVPSRFSGSGSGTDFTLTISSLQPEDAATYYCAGGYGGGRYAFGQGTKVEIKRTVAAPSVFIFPPSDEQLKSGTASVVCLLNNFYPREAKVQWKVDNALQSGNSQESVTEQDSKDSTYSLSSTLTLSKADYEKHKVYACEVTHQGLSSPVTKSFNRGEC
notes: copies: 2 + 2
What is called Kd is the equilibrium constant for the complex coming apart. As for B1, the Kd amounted to 3.7 µM in assay [1]; 64 µM in assay [2]; 16 µM in assay [3]; 2.8 µM in assay [4]; 12 µM in assay [5]; 5.5 µM in assay [6]. In assay [7], the equilibrium dissociation constant (Kd) was 5.6 µM.

B2: M103205H795-MY267/M103202L889-SK1 (antibody, human IgG1, kappa)
heavy: B1 heavy with L238I
light: B1 light
notes: copies: 2 + 2
Regarding B2, the Kd came to 2.7 µM in assay [1]; 15 µM in assay [2]; 7.3 µM in assay [3]; 0.84 µM in assay [4]; 5.7 µM in assay [5]; 20 µM in assay [6]. Moreover, the Kd in assay [7] amounted to 24 µM.

B3: M103205H795-MY265/M103202L889-SK1 (antibody, human IgG1, kappa)
heavy: B1 heavy with L238T
light: B1 light
notes: copies: 2 + 2
With B3, the Kd in assay [1] was 2 µM; in assay [2] it was 54 µM; in assay [3], 4.8 µM; in assay [4], 0.59 µM; in assay [5], 2.2 µM; in assay [6], 1.9 µM. The same molecule came in with a Kd in assay [7] of 2.2 µM.

(Values after patent US20200317768A1 (published 2020).)
